According to publication PMC10397319, “The phosphatidylinositol (4,5)-bisphosphate-Rab35 axis regulates migrasome formation” (Cell Research, 2023):
Ends that are not written are not given here.

Biological target: T1, His-GFP-Rab35-Q67L (rat, UniProt Q5U316 1-201, Q67L)
T1 construct: Rab35, cloned from rat cDNA, constitutively active mutant Q67L; the methods describe only the WT purification; also called constitutively active Rab35-Q67L; active Rab35; source: cloned into pET21b, purified; not shown: GFP, N-terminal, kept
Assay: dual-color fluorescence cross-correlation spectroscopy (dcFCCS); both free in solution; 100 nM GFP-Rab35 mixed with 500 nM Cy5-ITGα5-cyto; 20 mM HEPES pH 7.5, 100 mM NaCl, 2 mM MgCl2, 0.1% BSA; 25 °C; 5 min recording, three repeats
Details: both partners purified

T1 sequence (Q5U316 whole entry Q67L): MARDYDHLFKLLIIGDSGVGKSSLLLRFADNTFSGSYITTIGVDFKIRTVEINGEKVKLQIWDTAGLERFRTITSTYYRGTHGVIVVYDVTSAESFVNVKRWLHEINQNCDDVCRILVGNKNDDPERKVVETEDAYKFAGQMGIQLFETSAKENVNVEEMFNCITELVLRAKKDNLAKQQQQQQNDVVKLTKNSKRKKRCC

B1: Cy5-ITGα5-cyto-WT (peptide)
peptide: YKLGFFKRSLPYGTAMEKAQLKPPATSDA
modifications: also: Sulfo-Cy5 label, site not given here
notes: also called cytosolic domain of integrin α5; WT peptide; source: synthetic peptide (Synpeptide Co., Ltd.), labelled with Sulfo-Cy5 NHS ester
B1: binds.
